According to patent US7662583B2, “Bioreactor containing cells expressing glycosyltransferase nucleic acids isolatable from Arabidopsis” (The University of York, priority 2003, dated 2010):

Experiments:
[1] = Whole-cell biocatalyst assay, E. coli expressing UGT in culture medium; type: cell-based
Protocol: FIG. 14 Whole-cell biocatalyst assay using UGT71C1. E. coli cells expressing recombinant were used in the biocatalyst assay. After incubation with 0.1 mM quercetin and 0.1 mM IPTG, cells were collected by centrifugation, extracted with 80% methanol and both the cell extracts (pellet) and culture medium (supernatant) were analysed using HPLC. (A) Changes in the combined amounts of aglycone/glucoside over a time-course of 0-48 h. (B) Changes in the level of different glucosides and aglycone in the culture medium over the same time-course.
Using the foundation established in the preceding example, we went on to investigate the potential of E. coli expressing plant UGTs as whole-cell biocatalysts to synthesise glucosides of quercetin. In the first instance, we used E. coli grown in 75 ml of standard culture medium. […] Table 2 describes results in which 7 different UGTs are expressed in E. coli and the identity and quantity of different glucosides recovered in the medium were analysed by HPLC. […] There was considerable variation in the level of different glucosides synthesised by the cells, although even under these non-optimised conditions, each of the four monoglucosides and two di-O-glucosides could be formed.

[2] = UGT enzyme reaction with quercetin (recombinant UGTs, HPLC); type: biochemical, Arabidopsis; conditions: for Specific activity (nkat/mg protein) 3-O-glc: quercetin glucosylated at 3-OH; for Specific activity (nkat/mg protein) 3-O-glc / Specific activity (nkat/mg protein) 3′-O-glc / Specific activity (nkat/mg protein) 4′-O-glc / Specific activity (nkat/mg protein) 7-O-glc: 0.5 mM quercetin, 5 mM UDP-glucose, 30° C.; for Specific activity (nkat/mg protein) 3′-O-glc: quercetin glucosylated at 3′-OH; for Specific activity (nkat/mg protein) 4′-O-glc: quercetin glucosylated at 4′-OH; for Specific activity (nkat/mg protein) 7-O-glc: quercetin glucosylated at 7-OH
Procedure, shortened: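 Recombinant Arabidopsis UGTs (2 μg) incubated with 0.5 mM quercetin and 5 mM UDP-glucose in 100 mM Tris-HCl pH 7.0 at 30 °C for 1 h. Quercetin glucosides separated from aglycone by reverse-phase C18 HPLC (acetonitrile gradient, 0.1% TFA), detected at 370 nm.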

[3] = E. coli, 2x YT medium, 0.1 mM IPTG, 0.1 mM quercetin, 24 h

B1: UGT71C1: Arabidopsis recombinant glycosyltransferase (protein, UniProt O82381 1-481, looked up)
Flavonol …: MGKQEDAELVIIPFPFSGHILATIELAKRLISQDNPRIHTITILYWGLPFIPQADTIAFLRSLVKNEPRIRLVTLPEVQDPPPMELFVEFAESYILEYVKKMVPIIREALSTLLSSRDESGSVRVAGLVLDFFCVPMIDVGNEFNLPSYIFLTCSAGFLGMMKYLPERHREIKSEFNRSFNEELNLIPGYVNSVPTKVLPSGLFMKETYEPWVELAERFPEAKGILVNSYTALEPNGFKYFDRCPDNYPTIYPIGPILCSNDRPNLDSSERDRIITWLDDQPESSVVFLCFGSLKNLSATQINEIAQALEIVDCKFIWSFRTNPKEYASPYEALPHGFMDRVMDQGIVCGWAPQVEILAHKAVGGFVSHCGWNSILESLGFGVPIATWPMYAEQQLNAFTMVKELGLALEMRLDYVSEDGDIVKADEIAGTVRSLMDGVDVPKSKVKEIAEAGKEAVDGGSSFLAVKRFIGDLIDGVSISK
[1]; [3]
  Culture medium (μg/ml in supernatant) 3′-O-glc: 8.00 µg/mL
  Culture medium (μg/ml in supernatant) 7,3′-di-O-glc: 10.90 µg/mL
  Culture medium (μg/ml in supernatant) 7-O-glc: 2.12 µg/mL
[1]; within 6 h, E. coli in 75 ml standard culture medium, no supplementary UDP-glucose
  aglycone converted to glucosides: ~50%
[2]; low substrate concentration, time parameter varied
  di-O-glucoside formation from quercetin: significant levels of di-O-glucosides
[2]
  Specific activity (nkat/mg protein) 3-O-glc: — (Activity lower than 0.02 nkat/mg protein has been considered as trace activity and is not shown in the Table.)
  Specific activity (nkat/mg protein) 3′-O-glc: 1.19 nkat/mg protein
  Specific activity (nkat/mg protein) 4′-O-glc: — (Activity lower than 0.02 nkat/mg protein has been considered as trace activity and is not shown in the Table.)
  Specific activity (nkat/mg protein) 7-O-glc: 0.85 nkat/mg protein

B2: UGT71D1: Arabidopsis recombinant glycosyltransferase (protein, UniProt O82383 1-467, looked up)
UDP-glycosyltransferase 71D1: MRNVELIFIPTPTVGHLVPFLEFARRLIEQDDRIRITILLMKLQGQSHLDTYVKSIASSQPFVRFIDVPELEEKPTLGSTQSVEAYVYDVIERNIPLVRNIVMDILTSLALDGVKVKGLVVDFFCLPMIDVAKDISLPFYVFLTTNSGFLAMMQYLADRHSRDTSVFVRNSEEMLSIPGFVNPVPANVLPSALFVEDGYDAYVKLAILFTKANGILVNSSFDIEPYSVNHFLQEQNYPSVYAVGPIFDLKAQPHPEQDLTRRDELMKWLDDQPEASVVFLCFGSMARLRGSLVKEIAHGLELCQYRFLWSLRKEEVTKDDLPEGFLDRVDGRGMICGWSPQVEILAHKAVGGFVSHCGWNSIVESLWFGVPIVTWPMYAEQQLNAFLMVKELKLAVELKLDYRVHSDEIVNANEIETAIRYVMDTDNNVVRKRVMDISQMIQRATKNGGSSFAAIEKFIYDVIGIKP
[2]
  Specific activity (nkat/mg protein) 3-O-glc: 4.19 nkat/mg protein
  Specific activity (nkat/mg protein) 3′-O-glc: — (Activity lower than 0.02 nkat/mg protein has been considered as trace activity and is not shown in the Table.)
  Specific activity (nkat/mg protein) 4′-O-glc: — (Activity lower than 0.02 nkat/mg protein has been considered as trace activity and is not shown in the Table.)
  Specific activity (nkat/mg protein) 7-O-glc: — (Activity lower than 0.02 nkat/mg protein has been considered as trace activity and is not shown in the Table.)

B3: UGT71B1: Arabidopsis recombinant glycosyltransferase (protein, UniProt Q9LSY9 1-473, looked up)
UDP-glycosyltransferase 71B1: MKVELVFIPSPGVGHIRATTALAKLLVASDNRLSVTLIVIPSRVSDDASSSVYTNSEDRLRYILLPARDQTTDLVSYIDSQKPQVRAVVSKVAGDVSTRSDSRLAGIVVDMFCTSMIDIADEFNLSAYIFYTSNASYLGLQFHVQSLYDEKELDVSEFKDTEMKFDVPTLTQPFPAKCLPSVMLNKKWFPYVLGRARSFRATKGILVNSVADMEPQALSFFSGGNGNTNIPPVYAVGPIMDLESSGDEEKRKEILHWLKEQPTKSVVFLCFGSMGGFSEEQAREIAVALERSGHRFLWSLRRASPVGNKSNPPPGEFTNLEEILPKGFLDRTVEIGKIISWAPQVDVLNSPAIGAFVTHCGWNSILESLWFGVPMAAWPIYAEQQFNAFHMVDELGLAAEVKKEYRRDFLVEEPEIVTADEIERGIKCAMEQDSKMRKRVMEMKDKLHVALVDGGSSNCALKKFVQDVVDNVP
[2]
  Specific activity (nkat/mg protein) 3-O-glc: 1.85 nkat/mg protein
  Specific activity (nkat/mg protein) 3′-O-glc: — (Activity lower than 0.02 nkat/mg protein has been considered as trace activity and is not shown in the Table.)
  Specific activity (nkat/mg protein) 4′-O-glc: — (Activity lower than 0.02 nkat/mg protein has been considered as trace activity and is not shown in the Table.)
  Specific activity (nkat/mg protein) 7-O-glc: — (Activity lower than 0.02 nkat/mg protein has been considered as trace activity and is not shown in the Table.)

B4: UGT74F1: Arabidopsis recombinant glycosyltransferase (protein, UniProt O22820 1-449, looked up)
Flavonol …: MEKMRGHVLAVPFPSQGHITPIRQFCKRLHSKGFKTTHTLTTFIFNTIHLDPSSPISIATISDGYDQGGFSSAGSVPEYLQNFKTFGSKTVADIIRKHQSTDNPITCIVYDSFMPWALDLAMDFGLAAAPFFTQSCAVNYINYLSYINNGSLTLPIKDLPLLELQDLPTFVTPTGSHLAYFEMVLQQFTNFDKADFVLVNSFHDLDLHEEELLSKVCPVLTIGPTVPSMYLDQQIKSDNDYDLNLFDLKEAALCTDWLDKRPEGSVVYIAFGSMAKLSSEQMEEIASAISNFSYLWVVRASEESKLPPGFLETVDKDKSLVLKWSPQLQVLSNKAIGCFMTHCGWNSTMEGLSLGVPMVAMPQWTDQPMNAKYIQDVWKVGVRVKAEKESGICKREEIEFSIKEVMEGEKSKEMKENAGKWRDLAVKSLSEGGSTDININEFVSKIQIK
[1]; [3]
  Culture medium (μg/ml in supernatant) 4′-O-glc: 0.19 µg/mL
  Culture medium (μg/ml in supernatant) 7-O-glc: 0.53 µg/mL

B5: UGT73B5: Arabidopsis recombinant glycosyltransferase (protein, UniProt Q9ZQG4 1-484, looked up)
UDP-glycosyltransferase 73B5: MNREVSERIHILFFPFMAQGHMIPILDMAKLFSRRGAKSTLLTTPINAKIFEKPIEAFKNQNPDLEIGIKIFNFPCVELGLPEGCENADFINSYQKSDSGDLFLKFLFSTKYMKQQLESFIETTKPSALVADMFFPWATESAEKLGVPRLVFHGTSFFSLCCSYNMRIHKPHKKVATSSTPFVIPGLPGDIVITEDQANVAKEETPMGKFMKEVRESETNSFGVLVNSFYELESAYADFYRSFVAKRAWHIGPLSLSNRELGEKARRGKKANIDEQECLKWLDSKTPGSVVYLSFGSGTNFTNDQLLEIAFGLEGSGQSFIWVVRKNENQGDNEEWLPEGFKERTTGKGLIIPGWAPQVLILDHKAIGGFVTHCGWNSAIEGIAAGLPMVTWPMGAEQFYNEKLLTKVLRIGVNVGATELVKKGKLISRAQVEKAVREVIGGEKAEERRLWAKKLGEMAKAAVEEGGSSYNDVNKFMEELNGRK
[2]
  Specific activity (nkat/mg protein) 3-O-glc: 11.58 nkat/mg protein
  Specific activity (nkat/mg protein) 3′-O-glc: — (Activity lower than 0.02 nkat/mg protein has been considered as trace activity and is not shown in the Table.)
  Specific activity (nkat/mg protein) 4′-O-glc: — (Activity lower than 0.02 nkat/mg protein has been considered as trace activity and is not shown in the Table.)
  Specific activity (nkat/mg protein) 7-O-glc: — (Activity lower than 0.02 nkat/mg protein has been considered as trace activity and is not shown in the Table.)
